# According to article PMC12337344:
# Tests used:
# [1] = biological target: G2L4 RT (Pseudomonas aeruginosa group II intron-like reverse transcriptase), full-length, as crystallised (Pseudomonas aeruginosa); assay: SEC; size-exclusion chromatography comparing G2L4 RT to GII RT (SI Appendix, Fig. S1A)
# [2] = biological target: G2L4 RT NTE + Thumb mutant (R12A, Y15A, R398A) (Pseudomonas aeruginosa); assay: native gel or EMSA; nondenaturing gel of WT and mutant G2L4 RT proteins; proportions running as monomer or dimer (SI Appendix, Fig. S10C)
# [3] = biological target: G2L4 RT NTE mutant (R12A, Y15A, R19A) (Pseudomonas aeruginosa); assay: as above
# [4] = biological target: G2L4 RT Thumb mutant (R397A, R398A, R404A) (Pseudomonas aeruginosa); assay: as above
# [5] = biological target: G2L4 RT with an A instead of an I at the active site (Pseudomonas aeruginosa); assay: as above
# [6] = biological target: G2L4 RT with deletion of C-terminal residues 401 to 411 (Pseudomonas aeruginosa); assay: not stated; dimer state of G2L4 RT after removal of the MBP tag and after deletion of residues 401 to 411 (SI Appendix, Fig. S10 A and B)
# [7] = biological target: G2L4 RT without the N-terminal MBP tag (Pseudomonas aeruginosa); assay: as above
# [8] = biological target: MBP-tagged G2L4 RT R190E/I202E (Pseudomonas aeruginosa); assay: SEC; gel filtration profiles of MBP-tagged WT and RT3a mutant G2L4 RTs (SI Appendix, Fig. S4 A and B)
# [9] = biological target: MBP-tagged G2L4 RT R190E/R191E (Pseudomonas aeruginosa); assay: as above
# [10] = biological target: MBP-tagged G2L4 RT R191E/I202E (Pseudomonas aeruginosa); assay: as above
# [11] = biological target: MBP-tagged wild-type G2L4 RT (Pseudomonas aeruginosa); assay: as above
# [12] = biological target: MBP-tagged wild-type G2L4 RT (Pseudomonas aeruginosa); assay: native gel or EMSA; nondenaturing gel of WT and mutant G2L4 RT proteins; proportions running as monomer or dimer (SI Appendix, Fig. S10C)
substance,measurement,setting,value
"G2L4 RT (Pseudomonas aeruginosa group II intron-like reverse transcriptase), full-length, as crystallised (enzyme)",stoichiometry N,[1],2
"G2L4 RT NTE + Thumb mutant (R12A, Y15A, R398A) (enzyme)",percent of the protein running as monomers,[2],54%
"G2L4 RT NTE mutant (R12A, Y15A, R19A) (enzyme)",percent of the protein running as monomers,[3],12%
"G2L4 RT Thumb mutant (R397A, R398A, R404A) (enzyme)",percent of the protein running as monomers,[4],35%
G2L4 RT with an A instead of an I at the active site (enzyme),percent of the protein running as monomers,[5],< 7%
G2L4 RT with deletion of C-terminal residues 401 to 411 (domain or fragment),stoichiometry N,[6],2
G2L4 RT without the N-terminal MBP tag (enzyme),stoichiometry N,[7],2
MBP-tagged G2L4 RT R190E/I202E (enzyme),stoichiometry N,[8],2
MBP-tagged G2L4 RT R190E/R191E (enzyme),stoichiometry N,[9],2
MBP-tagged G2L4 RT R191E/I202E (enzyme),stoichiometry N,[10],2
MBP-tagged wild-type G2L4 RT (enzyme),stoichiometry N,[11],2
same,percent of the protein running as monomers,[12],< 7%
